± gives the standard deviation of the averaged measurements.
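Also: ATP exposure 15 min at 22 °C before imaging.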

The subject of this data set is ATP. In words: switch fluorescence ratio, 500 uM ATP over buffer (Cy3 cluster intensity, sum of 5 cycles each) (fold (ratio)); higher = stronger signal-on switching upon ATP binding; sequences stand for … in TCGTCGGCAGCGTCAGATGTGTATAAGAGACAGTTTTTTTTTTTTTTTTTTTTTTTTT…TC. The settings on record: aptamer strand: ATP DNA aptamer (quencher-CACCTGGGGGAGTATTGCGGAGGAAGG + anchor), 100 nM annealed; ATP concentration: 500 uM. The essentials: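 Cy3-labelled switching-strand clusters on a modified Illumina MiSeq flow-cell were annealed to 100 nM quencher-labelled ATP aptamer and imaged first in selection buffer, then after 15 min with 500 uM ATP at 22 °C. NaOH stripping and re-annealing separated each of five buffer/ATP cycles, and clusters outside 100-1000 RFU were excluded. The fluorescence ratio sums target-cycle Cy3 intensity over buffer-cycle Cy3 intensity per cluster and averages it per switch-domain sequence.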
Regarding GTTGCTGTTT, the switch fluorescence ratio worked out at 1 ± 0.048.
For TATTTGGATA, the switch fluorescence ratio was 1.05 ± 0.1.
On to TTTTTAGGGC, for which the switch fluorescence ratio stood at 1.02 ± 0.059.
Then ATGCGGGGTC, with 1.03 ± 0.053; and CCGGGGGAAT, with 1.13 ± 0.16; and TTGTGGAATG, with 1.015 ± 0.0094.
In the case of GACGGAAGAA, the switch fluorescence ratio turned out to be 1.74 ± 0.072.
Then GCATTATTCG, with 1.059 ± 0.0079.
On to TGGTAAAAAA, for which the switch fluorescence ratio came out at 0.959 ± 0.016.
As to TTTTTGAGTT, the switch fluorescence ratio was determined as 0.977 ± 0.032.
The value for TTTAGTCGGG was 1.02 ± 0.046.
Regarding ACTTATTAAT, the switch fluorescence ratio amounted to 1.03 ± 0.027.
Regarding CAATGCGTAT, the switch fluorescence ratio was determined as 1.01 ± 0.07.
Take AAATGTGCTG: the switch fluorescence ratio was found to be 1 ± 0.024.
As to TGTTCCGTAT, the switch fluorescence ratio was 0.993 ± 0.044.
Take CTTTCTAAGG: the switch fluorescence ratio stood at 1.02 ± 0.036.
With CAAGTGATAT, the switch fluorescence ratio came out at 1.05 ± 0.014.
For AAGGATTATT, the switch fluorescence ratio is 0.97 ± 0.024.
The value for TCTAATTGTT was 0.9991 ± 0.0053; that for ACGAAATTGG was 1.04 ± 0.068.
As for TGAGCTAATG, the switch fluorescence ratio is 1.04 ± 0.043.
As to GGGGTCTAAA, the switch fluorescence ratio worked out at 1.009 ± 0.0063.
Regarding TTGTCGGTCT, the switch fluorescence ratio amounted to 0.972 ± 0.018.
Consider AGATTGGAGG, for which the switch fluorescence ratio was determined as 0.957 ± 0.028.
Then ATTTGGGTGA, with 1.03 ± 0.047.
As to AAAAGCGTTA, the switch fluorescence ratio worked out at 0.9962 ± 0.009.
As for TTGGGGTTGT, the switch fluorescence ratio worked out at 1.03 ± 0.12.
In the case of GCGCTTGAAC, the switch fluorescence ratio was 1.15 ± 0.051.
Then GGGTTGGACT, with 0.999 ± 0.012.
With GGTTGAGATG, the switch fluorescence ratio turned out to be 0.982 ± 0.014.
CGGGGGTGCA: the switch fluorescence ratio is 1 ± 0.0011.
As to AAAAAAAGGT, the switch fluorescence ratio was found to be 1.021 ± 0.01.
Then AAAATGCGGG, with 1.01 ± 0.036.
With GATGTAGGTT, the switch fluorescence ratio was found to be 0.98 ± 0.029.
Turning to ATCAGGATGC, the switch fluorescence ratio is 1.04 ± 0.063.
On to CACGCGGGGG, for which the switch fluorescence ratio was found to be 1.03 ± 0.015.
Then ATTCGTGGGA, with 0.9892 ± 0.0074; and TGGGGCAGGG, with 1.44 ± 0.62; and AAAGGTCCGC, with 1.18 ± 0.051.
Take CTCGGGGGAG: the switch fluorescence ratio is 0.991 ± 0.026.
Consider GGGTTAATCG, for which the switch fluorescence ratio stood at 1 ± 0.022.
AAGATAGAAA: the switch fluorescence ratio came out at 1.01 ± 0.013.
The value for GGGAACAGGG was 1.003 ± 0.0024; that for TTAGCTTGG was 0.999 ± 0.061; that for TCAATGTTTT was 0.9846 ± 0.0031.
With TAACTATTCC, the switch fluorescence ratio worked out at 1.23 ± 0.082.
On to TTCCCACCGT, for which the switch fluorescence ratio was 1.06 ± 0.031.
Then CAAGAGTGC, with 1.025 ± 0.0091; and ATGATAGGGA, with 1.01 ± 0.063.
Turning to TAGGTGTTGG, the switch fluorescence ratio came out at 1.02 ± 0.007.
On to ATGCGCAGCG, for which the switch fluorescence ratio stood at 1.04 ± 0.035.
Take ATAGTATGTT: the switch fluorescence ratio was found to be 0.99 ± 0.051.
TTCTACACAG: the switch fluorescence ratio was 1.04 ± 0.032.
The value for TTTACGTCAG was 1.013 ± 0.0034; that for TTGCACCGTT was 1.01 ± 0.038.
The value for ACGTAGCATG was 2.46 ± 0.45; that for CGGGGGTTGA was 1.03 ± 0.03; that for TCCATCGGGT was 1.01 ± 0.038.
GGGACAGACC: the switch fluorescence ratio amounted to 1.09 ± 0.024.
The value for GTTTTTGGTA was 0.986 ± 0.021; that for ATATAAAGGG was 0.996 ± 0.025; that for TTAGTTTGTC was 0.986 ± 0.063.
Turning to TCGGCCAGAG, the switch fluorescence ratio was 1.01 ± 0.012.
TTGGGTGGTG: the switch fluorescence ratio amounted to 0.983 ± 0.033.
For TTAGGGGCAC, the switch fluorescence ratio is 0.993 ± 0.018.
Then TACGGGAGCT, with 1.05 ± 0.026; and AATTTCGGGT, with 0.9877 ± 0.0096.
Consider AGTTTCGGGC, for which the switch fluorescence ratio came out at 0.974 ± 0.033.
Then TATTCATTTG, with 1.027 ± 0.0068; and GGGGACCGGG, with 1.07 ± 0.094; and AATCTTCTGG, with 0.98 ± 0.025.
With ATGCGGTCGG, the switch fluorescence ratio turned out to be 1.02 ± 0.045.
As for CCTACAGTGA, the switch fluorescence ratio is 1.752 ± 0.015.
The value for GCCAATGGGG was 0.989 ± 0.026; that for TTTGCTGTAT was 0.9747 ± 0.0032.
For GAGTCACAGT, the switch fluorescence ratio was 1 ± 0.057.
Consider TCTGCCTTTT, for which the switch fluorescence ratio worked out at 1.05 ± 0.074.
As for GGAAAATTAA, the switch fluorescence ratio was 1 ± 0.033.
Consider AAAACGAGAT, for which the switch fluorescence ratio was 1.05 ± 0.039.

For the origin of these results see the supplement of paper PMC10126150.
